Assay results from patent publication US20150344570A1 (published 2015).

T1: FcγRIIa R extracellular domain with C-terminal His tag (human, UniProt P12318 34-217)
T1 construct: extracellular domain; Soluble receptor, R131 allotype; also called FcgRIIa R; FcgRIIaR; not shown: His tag at the C terminus
T1 sequence (looked up): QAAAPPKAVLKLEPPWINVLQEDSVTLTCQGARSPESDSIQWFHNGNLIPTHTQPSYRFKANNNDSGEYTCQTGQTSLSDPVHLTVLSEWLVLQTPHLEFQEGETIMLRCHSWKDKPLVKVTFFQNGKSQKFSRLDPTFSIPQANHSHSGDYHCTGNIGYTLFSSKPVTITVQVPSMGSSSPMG

T2: FcγRIIa H extracellular domain with C-terminal His tag (human, UniProt P12318 34-217)
T2 construct: extracellular domain; Soluble receptor, H131 allotype; also called FcgRIIa H; FcgRIIaH; not shown: His tag at the C terminus
T2 sequence (looked up): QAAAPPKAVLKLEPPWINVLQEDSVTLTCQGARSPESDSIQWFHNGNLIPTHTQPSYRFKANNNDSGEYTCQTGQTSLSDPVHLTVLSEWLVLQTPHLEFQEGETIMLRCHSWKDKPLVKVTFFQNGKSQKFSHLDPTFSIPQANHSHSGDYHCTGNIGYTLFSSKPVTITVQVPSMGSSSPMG

T3: FcγRIIb extracellular domain with C-terminal His tag (human, UniProt P31994 43-217)
T3 construct: extracellular domain; also called FcgRIIb; CD32B; not shown: His tag at the C terminus
T3 sequence (looked up): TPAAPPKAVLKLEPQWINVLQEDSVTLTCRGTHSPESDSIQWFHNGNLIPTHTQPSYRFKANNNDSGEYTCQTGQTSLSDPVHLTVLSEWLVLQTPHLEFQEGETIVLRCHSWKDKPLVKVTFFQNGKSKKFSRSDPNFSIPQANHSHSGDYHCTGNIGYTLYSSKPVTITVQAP

B1: H240-Kn061/H240-Hl071/L73-k0 variant with V240F introduced into H chain H240-Hl071 (antibody, human IgG1, kappa)
heavy 1: QDQLVQSGAEVKKPGASVKVSCKASGFNIKDTYIQWVRQAPGQGLEWMGRIDPLRKQTKYREKFEGRVTITADTSTNTAYMELSSLRSEDTAVYYCVRSGREFDYWGQGTLVTVSSASTKGPSVFPLAPSSKSTSGGTAALGCLVKDYFPEPVTVSWNSGALTSGVHTFPAVLQSSGLYSLSSVVTVPSSSLGTQTYICNVNHKPSNTKVDKKVEPKSCDKTHTCPPCPAPEYYWGPSVFLFPPKPKDTLMISRTPEVTCVVVDVSDEDPEVKFNWYVDGVEVHNAKTKPREEQYNATYRVVSVLTVLHQDWLNGKEYKCKVSNKALPAPIEKTISKAKGQPREPQVCTLPPSRDELTKNQVSLWCLVKGFYPSDIAVEWESNGQPENNYKTTPPVLDSDGSFFLYSKLTVDKSRWQQGNVFSCSVMHEALHNHYTQKSLSLSP
heavy 2: QDQLVQSGAEVKKPGASVKVSCKASGFNIKDTYIQWVRQAPGQGLEWMGRIDPLRKQTKYREKFEGRVTITADTSTNTAYMELSSLRSEDTAVYYCVRSGREFDYWGQGTLVTVSSASTKGPSVFPLAPSSKSTSGGTAALGCLVKDYFPEPVTVSWNSGALTSGVHTFPAVLQSSGLYSLSSVVTVPSSSLGTQTYICNVNHKPSNTKVDKKVEPKSCDKTHTCPPCPAPELLGGPSFFLFPPKPKDTLMISRTPEVTCVVVDVSHEDPEVKFNWYVDGVEVHNAKTKPREEQYNSTYRVVSVLTVLHQDWLNGKEYKCKVSNDALPMPIEETISKAKGQPREPQVYTLPPSRCELTKNQVSLSCAVKGFYPSDIAVEWESNGQPENNYKTTPPVLDSDGSFFLVSKLTVDKSRWQQGNVFSCSVMHEALHNHYTQKSLSLSP
light: DIQMTQSPSSLSASVGDRVTITCRASQDIHKYIAWYQQKPGQAPRLLIQYTSTLQPGVPSRFSGSGSGTDYTFTISSLQPEDIATYYCLQYEQLRTFGGGTKVEIKRTVAAPSVFIFPPSDEQLKSGTASVVCLLNNFYPREAKVQWKVDNALQSGNSQESVTEQDSKDSTYSLSSTLTLSKADYEKHKVYACEVTHQGLSSPVTKSFNRGEC
notes: Point variant of the heterodimerized anti-epiregulin IgG1 template; also called H240-Hl071 V240F
B2: H240-Kn061/H240-Hl071/L73-k0 variant with Y235N introduced into H chain H240-Kn061 (antibody, human IgG1, kappa)
heavy 1: QDQLVQSGAEVKKPGASVKVSCKASGFNIKDTYIQWVRQAPGQGLEWMGRIDPLRKQTKYREKFEGRVTITADTSTNTAYMELSSLRSEDTAVYYCVRSGREFDYWGQGTLVTVSSASTKGPSVFPLAPSSKSTSGGTAALGCLVKDYFPEPVTVSWNSGALTSGVHTFPAVLQSSGLYSLSSVVTVPSSSLGTQTYICNVNHKPSNTKVDKKVEPKSCDKTHTCPPCPAPEYNWGPSVFLFPPKPKDTLMISRTPEVTCVVVDVSDEDPEVKFNWYVDGVEVHNAKTKPREEQYNATYRVVSVLTVLHQDWLNGKEYKCKVSNKALPAPIEKTISKAKGQPREPQVCTLPPSRDELTKNQVSLWCLVKGFYPSDIAVEWESNGQPENNYKTTPPVLDSDGSFFLYSKLTVDKSRWQQGNVFSCSVMHEALHNHYTQKSLSLSP
heavy 2: QDQLVQSGAEVKKPGASVKVSCKASGFNIKDTYIQWVRQAPGQGLEWMGRIDPLRKQTKYREKFEGRVTITADTSTNTAYMELSSLRSEDTAVYYCVRSGREFDYWGQGTLVTVSSASTKGPSVFPLAPSSKSTSGGTAALGCLVKDYFPEPVTVSWNSGALTSGVHTFPAVLQSSGLYSLSSVVTVPSSSLGTQTYICNVNHKPSNTKVDKKVEPKSCDKTHTCPPCPAPELLGGPSVFLFPPKPKDTLMISRTPEVTCVVVDVSHEDPEVKFNWYVDGVEVHNAKTKPREEQYNSTYRVVSVLTVLHQDWLNGKEYKCKVSNDALPMPIEETISKAKGQPREPQVYTLPPSRCELTKNQVSLSCAVKGFYPSDIAVEWESNGQPENNYKTTPPVLDSDGSFFLVSKLTVDKSRWQQGNVFSCSVMHEALHNHYTQKSLSLSP
light: DIQMTQSPSSLSASVGDRVTITCRASQDIHKYIAWYQQKPGQAPRLLIQYTSTLQPGVPSRFSGSGSGTDYTFTISSLQPEDIATYYCLQYEQLRTFGGGTKVEIKRTVAAPSVFIFPPSDEQLKSGTASVVCLLNNFYPREAKVQWKVDNALQSGNSQESVTEQDSKDSTYSLSSTLTLSKADYEKHKVYACEVTHQGLSSPVTKSFNRGEC
notes: Point variant of the heterodimerized anti-epiregulin IgG1 template; also called H240-Kn061 Y235N
B3: H240-Kn061/H240-Hl071/L73-k0 variant with Y234E introduced into H chain H240-Kn061 (antibody, human IgG1, kappa)
heavy 1: QDQLVQSGAEVKKPGASVKVSCKASGFNIKDTYIQWVRQAPGQGLEWMGRIDPLRKQTKYREKFEGRVTITADTSTNTAYMELSSLRSEDTAVYYCVRSGREFDYWGQGTLVTVSSASTKGPSVFPLAPSSKSTSGGTAALGCLVKDYFPEPVTVSWNSGALTSGVHTFPAVLQSSGLYSLSSVVTVPSSSLGTQTYICNVNHKPSNTKVDKKVEPKSCDKTHTCPPCPAPEEYWGPSVFLFPPKPKDTLMISRTPEVTCVVVDVSDEDPEVKFNWYVDGVEVHNAKTKPREEQYNATYRVVSVLTVLHQDWLNGKEYKCKVSNKALPAPIEKTISKAKGQPREPQVCTLPPSRDELTKNQVSLWCLVKGFYPSDIAVEWESNGQPENNYKTTPPVLDSDGSFFLYSKLTVDKSRWQQGNVFSCSVMHEALHNHYTQKSLSLSP
heavy 2: QDQLVQSGAEVKKPGASVKVSCKASGFNIKDTYIQWVRQAPGQGLEWMGRIDPLRKQTKYREKFEGRVTITADTSTNTAYMELSSLRSEDTAVYYCVRSGREFDYWGQGTLVTVSSASTKGPSVFPLAPSSKSTSGGTAALGCLVKDYFPEPVTVSWNSGALTSGVHTFPAVLQSSGLYSLSSVVTVPSSSLGTQTYICNVNHKPSNTKVDKKVEPKSCDKTHTCPPCPAPELLGGPSVFLFPPKPKDTLMISRTPEVTCVVVDVSHEDPEVKFNWYVDGVEVHNAKTKPREEQYNSTYRVVSVLTVLHQDWLNGKEYKCKVSNDALPMPIEETISKAKGQPREPQVYTLPPSRCELTKNQVSLSCAVKGFYPSDIAVEWESNGQPENNYKTTPPVLDSDGSFFLVSKLTVDKSRWQQGNVFSCSVMHEALHNHYTQKSLSLSP
light: DIQMTQSPSSLSASVGDRVTITCRASQDIHKYIAWYQQKPGQAPRLLIQYTSTLQPGVPSRFSGSGSGTDYTFTISSLQPEDIATYYCLQYEQLRTFGGGTKVEIKRTVAAPSVFIFPPSDEQLKSGTASVVCLLNNFYPREAKVQWKVDNALQSGNSQESVTEQDSKDSTYSLSSTLTLSKADYEKHKVYACEVTHQGLSSPVTKSFNRGEC
notes: Point variant of the heterodimerized anti-epiregulin IgG1 template; also called H240-Kn061 Y234E

How the values were obtained:
Test in all cases: SPR (Biacore); KD of H240-Kn061/H240-Hl071/L73-k0 divided by KD of the variant
[1] = target: T1, FcγRIIa R extracellular domain with …
[2] = target: T2, FcγRIIa H extracellular domain with …
[3] = target: T3, FcγRIIb extracellular domain with …
[4] = target: T4, FcγRIIIa F extracellular domain with C-terminal His tag (human, UniProt P08637 17-208)
T4 construct: extracellular domain; Soluble receptor, F158 allotype; also called FcgRIIIa F; FcgRIIIaF; not shown: His tag at the C terminus
T4 sequence (P08637 17-208): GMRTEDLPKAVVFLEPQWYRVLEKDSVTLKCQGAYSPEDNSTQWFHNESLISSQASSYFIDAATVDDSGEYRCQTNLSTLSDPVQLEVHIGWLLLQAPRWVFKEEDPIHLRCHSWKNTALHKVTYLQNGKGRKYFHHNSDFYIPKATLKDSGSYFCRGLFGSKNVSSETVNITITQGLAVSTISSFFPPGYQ

[5] = target: T5, FcγRIIIa V extracellular domain with C-terminal His tag (human, UniProt P08637 17-208)
T5 construct: extracellular domain; Soluble receptor, V158 allotype; also called FcgRIIIa V; FcgRIIIaV; not shown: His tag at the C terminus
T5 sequence (P08637 17-208 F176V): as the sequence (P08637 17-208) above, with F160V counted along it

Binder | relative KD [1] | relative KD [2] | relative KD [3] | relative KD [4] | relative KD [5]
B1 | 1.1 | 0.9 | 0.9 | 1.4 | 1
B2 | 1 | 0.7 | 0.7 | 1.3 | 2
B3 | 1.4 | 0.7 | 0.5 | 1.9 | 1.6
